Data published in the DeepSol protein solubility set.

Test: soluble on expression in E. coli; label from the status in PepcDB or PDB records

| Sequence | soluble on expression in E. coli |
| --- | --- |
| MKKFTCVQDIGDLKSALAESFEIKKDRFKYVELGRNKTLLMIFFNSSLRTRLSTQKAALNLGMNVIVLDINQGAWKLETERGVIMDGDKPEHLLEAIPVMGCYCDIIGVRSFARFENREYDYNEVIINQFIQHSGRPVFSMEAATRHPLQSFADLITIEEYKKTARPKVVMTWAPHPRPLPQAVPNSFAEWMNATDYEFVITHPEGYELDPKFVGNARVEYDQMKAFEGADFIYAKNWAAYTGDNYGQILSTDRNWTVGDRQMAVTNNAYFMHCLPVRRNMIVTDDVIESPQSIVIPEAANREISATVVLKRLLENLPHHHHHH | soluble |
| MGSDKIHHHHHHMSPRKPRSPTAPNSSASIAPIPRLMPKLFVLDSNVLMHDPTSLFRFQEHDIYITMTTLEELDNNKKGMSEVARNARQTSRFLDEIVSSAITDIDEGISLQLHGTKNATGRLFLQTQAITNVLPVYLASGSADNQIIGAVKFLHDTHQNRVVTLVSKDINMRIKARALGLAAEDYFNDKVLEDTDVLFSGIQELPEDFWDEHGKDMESWQQSGQTFYRVTGPLAGGFVINQFVYLEHDKPFYAQVKETSGRTAVLQTLKDYTHQKNNVWGITARNREQNFAFNLLMNPEVDFVTLLGQAGTGKTLLTLAAGLMQTLEHKVYSEIIMTRVTVPVGEDIGFLPGTEEEKMTPWMGALEDNLDVLNKTDSSAGEWGRAATLDLIRSRIKIKSLNFMRGRTFINKFLIIDEAQNLTPKQMKTLITRAGPATKVVCLGNIAQIDTPYLSEGSSGLTYVVDRFKGWNHSGHVTLQRGERSRLADYAAEIL | not soluble |
| MGHHHHHHSHMGTNDEDELSLGLPTELKRKKEQLDGGHRPSKETQSAAGLTLPLNSDQTFHLMSNLAGDVITAAVTAAIKDQLEGVQQALSQAAPIPEEDTDTEEGDDFELLDQSELDQIESELGLTQDQEAEAQQNKKSSGFLSNLLGGH | soluble |
| MDRLGSFSNDPSDKPPCRGCSSYLMEPYIKCAECGPPPFFLCLQCFTRGFEYKKHQSDHTYEIMTSDFPVLDPSWTAQEEMALLEAVMDCGFGNWQDVANQMCTKTKEECEKHYMKYFINNPLFASTLLNLKQAEEAKTADTAIPFHSTDDPPRPTFDSLLSRDMAGYMPARADFIEEFDNYAEWDLRDIDFVEDDSDILHALKMAVVDIYHSRLKERQRRKKIIRDHGLINLRKFQLMERRYPKEVQDLYETMRRFARIVGPVEHDKFIESHACRWFLSLEQYLCVYIYINRRDNGVFYVKFYK | soluble |
| MRYLLSLSVFLIVSLNPAFAEWTGDNVEGMHSGMIINKFHSGQVDGKPYFCIEAFKPSTTITACSVKDTSIWGASYNTLYDQAMYYYTTGKRIRVYYAPDVWTNNSFVRALTANALVGFSTCISESSCFGPDRKKHKFTVH | not soluble |
| MIIPMNNKHPLPTPLVSIIIPVYNVEKYLYRCVKSILSQDYYDYEIILVDDGSTDGSGMICDELTEQHGHISVIHKPNGGQGSARNAGLNHAKGKYIWFIDSDDYISPHSLSVIMSQITQGDFDALFFPYIKSNGNILIGEAVGKYHAGVYRGQQLLLEGLVNMSMCTIVSLRSRWIDNRIFFREDIHFEDFEINPRVLKFLERAIFLDSNIIPYIYYTRLGSTMNQLDPQKRMRQTEDFLRIEKSWKEWFNLDSPEPNSYDMLMLRTGTNMLHRNLLNFVRNSNFSISTKLKLYAQYRKKGVFSWFYNGYRRDPYVGCTSVRVFWNTIGRSYILFSLFSIVEEIWKKIRK | not soluble |
| MGLQKKLNYKKTESERSFYRGSNLKQVMGEDIVSKFDYIGPIRWIFLNYCTGYFIFVEELTNNSEIRSDRLEFIDTMNKIFSEAEQYFNSAPKERPKNPKSLAEYKYLGYYRLSFSNTNPDNSAIIRLNDVEVEKSELPPLLNLDTDEILDYAV | not soluble |
| KKAITCGEKEKQDLIKSLAMLKDGFRTDRGSHSDLWSSSSSLESSSFPLPKQYLDVSSQTDISGSFGINSNNQLAEKVRLRLRYEEAKRRIANLKIQLAKLDSEAWPGVLDSERDRLILINEKEELLKEMRFISPRKWTQGEVEQLEMARKRLEKDLQAARDTQSKALTERLKLNSKRNQLVRELEEATRQVATLHSQLKSLSSSMQSLSSGSSPGSLTSSRGSLVASSLDSSTSASFTDLYYDPFEQLDSELQSKVEFLLLEGATGFRPSGCITTIHEDEVAKTQKAEGGGRLQALRSLSGTPKSMTSLSPRSSLSSPSPPCSPLMADPLLAGDAFLNSLEFEDPELSATLCELSLGNSAQERYRLEEPGTEGKQLGQAVNTAQGCGLKVACVSAAVSDESVAGDSGVYEASVQRLGASEAAAFDSDESEAVGATRIQIALKYDEKNKQFAILIIQLSNLSALLQQQDQKVNIRVAVLPCSESTTCLFRTRPLDASDTLVFNEVFWVSMSYPALHQKTLRVDVCTTDRSHLEECLGGAQISLAEVCRSGERSTRWYNLLSYKYLKKQSRELKPVGVMAPASGPASTDAVSALLEQTAVELEKRQEGRSSTQTLEDSWRYEETSENEAVAEEEEEEVEEEEGEEDVFTEKASPDMDGYPALKVDKETNTETPAPSPTVVRPKDRRVGTPSQGPFLRGSTIIRSKTFSPGPQSQYVCRLNRSDSDSSTLSKKPPFVRNSLERRSVRMKRPSSVKSLRSERLIRTSLDLELDLQATRTWHSQLTQEISVLKELKEQLEQAKSHGEKELPQWLREDERFRLLLRMLEKRMDRAEHKGELQTDKMMRAAAKDVHRLRGQSCKEPPEVQSFREKMAFFTRPRMNIPALSADDV | soluble |
| HSLFPIPRMGDSAAKIVSPQEALPGRKEPLVVAAKHHVNGNRTVEPFPEGTQMAVFGMGCFWGAERKFWTLKGVYSTQVGFAGGYTPNPTYKEVCSGKTGHAEVVRVVFQPEHISFEELLKVFWENHDPTQGMRQGNDHGSQYRSAIYPTSAEHVGAALKSKEDYQKVLSEHGFGLITTDIREGQTFYYAEDYHQQYLSKDPDGYCGLGGTGVSCPL | soluble |
| MQLEDYTAATNIAKKDFMPGTTKIDRALTGQVAGLQVKRSSGMPGEGSYYNLRGIRTLTGDNAPLIVINGVPHMPDKTPSALIDGFTRDIFQFYHLQDIQNITILKGAEAAMYGSMGSNGVILIETDGTASN | not soluble |
| MGSDKIHHHHHHMDSGMNEKTTAELEHLRGLIDGVDQQLLHLLRKRLDLVAQVGTVKHGAGLPIYAPQREAAMLAKRREEAKNMGIAPQLIEDILRRLMRESYLNEKDVGFKQVKKDLGSVVIVGGKGQLGGLFSQMLTLSGYQVNLLDKDDWQQADSLFADAGMVLVTVPIAITCELIREKLTQLPADCILADLTSIKTEPVKAMLEAHSGPVVGFHPMFGPDVGSLAKQVVVVCHGRSPEKYQWLLEQIAIWGARIVEAEPERHDSAMQLVQAMRHFSTFVYGLNLCKEEADIDTLLQFSSPIYRLELAMVGRLFAQSPELYADIIFAQQDSQHAIGDYLDNYREALELLKRGDRNEFIKQFQSVAKWFGDFAPQFQRESRIMLQSVNDMKTN | not soluble |
| MVAKISVGSSLFGALSYNQNKVDEEQGKVLLSNRMFESEDGNFSIRRCMECFDIHLPADLKTEKPIIHISLNPHPDDVLLDSQLADIAKEYMDKLGYGNQPYIVYKHEDIARHHIHIVSIRVDDTGKKINDKFEHIRSKQITRELEQKYGLHPAEKKQAAERPELKKVDYRAGDVKHQLSNTVKALASSYRFQSFTEYKALLSIYNVQAEEVKGEVNGKPYNGIVYSATNDKGEKQGNPFKSSSLGKSVGYEAIQRHIKKSTKDIQGKNLKERTRRTVGAVMKSTYNRKELEQELKKKGIDVLFRQNDTGRIYGVTFIDHENRTVLNGSRLGKDFSANVFNNLFSGSRTLTGNSKQEMQEHTPEFNSTGHLENTGKTIAGLFSLLSGGNDTPPDNSQVPPSKKRKKKKQRRILEHHHHHH | not soluble |
| MSLDLRKSKELTGIEAHINDNKKEESNVEYFEKLRSALLDGVNKGRSLLKHLPVTRIEGQSFRVDIIKFEDGVRVVKQEYKPIPLLKKKFYVGIRELNDGTYDVSIATKAGELLVKDEESLVIREILSTEGIKKMKLSSWDNPEEALNDLMNALQEASNASAGPFGLIINPKRYAKLLKIYEKSGKMLVEVLKEIFRGGIIVTLNIDENKVIIFANTPAVLDVVVGQDVTLQELGPEGDDVAFLVSEAIGIRIKNPEAIVVLEEGHHHHHH | soluble |
| MGSDKIHHHHHHMLAASMVDLARRLGVSSVHVTFPGGDEYEGLGEAGYLQRLGSQYHWTNPGYQSFDDFLGQLSSRKRKQIRKERDAVARTGIRLSTLVGGDVKARHWDVFHAFYQAVVDRKWGRAYVSRAFFEELSASALADSVVLVWAEDGGEPLGAAFNMLGGDTLYGRTWGGGRHVDFLHFEACYYRALDFAIAQGLARVEAGAQGEHKVSRGYLPNATYSAHWIADSRLAEPVARYLVHERAMVTEDMASQTEEGPFRKG | not soluble |
